Experimental data reported in the supplement of paper PMC9170038.

Experiments:
MS2 coat protein [1] = test: apparent KD of MS2 coat protein, switch ON state; designed switch direction (-1 OFF switch, 1 ON switch): -1; higher = weaker reporter binding; settings: FMN input: 0 or 200 uM; Eterna round: R93 (includes R88 designs)
In short: (§1)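 On-chip transcription from Illumina sequencing clusters produced the designed RNA switches. These were titrated with SNAP-549-labelled MS2 coat protein (twofold steps, 0.7 or 1.5 nM to 3 µM) in 100 mM Tris-HCl pH 7.5, 80 mM KCl, 4 mM MgCl2, with or without constant ligand. The apparent KD given is the per-design median of normalised cluster binding-curve fits.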

MS2 coat protein [2] = test: apparent KD of MS2 coat protein, switch OFF state (with FMN for OFF switches, without FMN for ON switches); designed switch direction (-1 OFF switch, 1 ON switch): -1; higher = weaker reporter binding; settings: FMN input: 0 or 200 uM; Eterna round: R93 (includes R88 designs)
In short: as §1

Row | Sequence | apparent KD of MS2 coat protein (MS2 coat protein [1]) | apparent KD of MS2 coat protein (MS2 coat protein [2])
1 | AACUGACAUGAGGAUCACCCAUGUCAGGAUAUGACUUGAUAGAAAAAAAAAUAUCAUGUCAGAAGGGACAUGGG [Design 56 :P Sub-opt I] | 21.4 nM | 12.8 nM
2 | AACUGACAUGAGGAUCACCCAUGUCAGGAUAUGAUAUGUAAAAAAAAAAAAAUACUUAUCAGAAGGGACAUGGG [Design 40: Sub-opt AB] | 15.3 nM | 15.4 nM
3 | AACUGACAUGAGGAUCACCCAUGUCAGGAUAUGAUUUGACGAAAAAAAACACGUCAUAUCAGAAGGGACAUGGA [Design 85: Sub-opt X] | 23.7 nM | 39.5 nM
4 | AACUGGCUAGGAUAUACGUAAUAAAAUAUCAGUGAGAUUUCACAUGAGGAUCACCCAUGUAGAAGGAGCAAAAU [Esxereorar] | 24.5 nM | 16.6 nM
5 | AAGAAACAUGAGGAUCACCCAUGUCAGGAUAUGAAAAAGAAAAGAAAAGAAAGAAGAAUCAGAAGGGACAAAGG [Neferkauhor Khuwihapi] | 74.1 nM | 27.4 nM
6 | AAGAAACAUGAGGAUCACCCAUGUGAGGAUAUUCAAAAGAAAAGAAAAGAAAGAAGAAGAAGAAGGCACAAAGG [Neferkamin] | 24.7 nM | 45.5 nM
7 | AAGAAAGGAGGAUAUACAAGAAAGAAAGAAAAGAAAAGAAAACAUGAGGAUCACCCAUGUAGAAGGCCUUAGAA [EteRNA is fun!] | 26.9 nM | 17.8 nM
8 | AAGAACCUAGGAUAUACAAAAUAAAAGAAAAGAAAGAAAGAACAUGAGGAUCACCCAUGUAGAAGGAGGAAGAA [Renseneb] | 48.3 nM | 18.5 nM
9 | AAGAACUCAGGAUAUACAUGAGGAUCACCCAUGUAAAAGAAAGAAAAGGGAAAGAAAAGUAGAAGGGAGAAGAA [Neferkheperure-waenre Amenhotep IV] | 32.7 nM | 36.2 nM
10 | AAGAACUGAGGAUAUACACAAGAAAAGAAAAGAAAGAAAGAACAUGAGGAUCACCCAUGUAGAAGGCGGAAGAA [Merhotepre Sobekhotep V] | 39.3 nM | 26.5 nM
11 | AAGAAGAUAGGAUAUACAAAAUAAAAGAAAAGAAAGAAAGAACAUGAGGAUCACCCAUGUAGAAGGAUCAAGAA [Sehetepibre Amenemhat I] | 25 nM | 17.7 nM
12 | AAGAAGCUAGGAUAUACAUGAGGAUCACCCAUGUAAAAGAAAGAGGGAAAAGAGAAAAGUAGAAGGAGCAAGAA [Cleopatra I] | 27.8 nM | 25.4 nM
13 | AAGAAGUAAGGAUAUACAAGAAAGAAAGAAAAGAAAAGAAAACAUGAGGAUCACCCAUGUAGAAGGUACUAGAA [EteRNA is fun!] | 24.1 nM | 14.9 nM
14 | AAGAAGUCAGGAUAUACUAAAGAAAUAAAAAGAAAGAAAGAACAUGAGGAUCACCCAUGUAGAAGGGACAAGAA [Sewadjare Mentuhotep V] | 67.4 nM | 31.7 nM
15 | AAGAAGUCAGGAUAUGCUGCUCGUCACUUGCGUGAUGAGUAGCAGAAGGGACAUGAGGAUCACCCAUGUGGAAA [Modifying Chris (69%) Late G segment 2] | 123 nM | 246 nM
16 | AAGAAGUGAGGAUAUUCGGAUAGGAAAACGAAAACCUAUCCGAAGAAGGCACAUGAGGAUCACCCAUGUAAAAA [Mat - Exaclusion 4 - Eli mod - D41] | 36.7 nM | 54.3 nM
17 | AAGAAGUUAGGAUAUACAAAAUAAAAGAAAAGAAAGAAAGAACAUGAGGAUCACCCAUGUAGAAGGGACAAGAA [Nubkaure Amenemhat II] | 59.2 nM | 33.9 nM
18 | AAGAAUGAAGGAUAUACAAGGAAGAAAGAAAAGAAAAGAAAACAUGAGGAUCACCCAUGUAGAAGGUCAUAGAA [EteRNA is fun!] | 22 nM | 26.3 nM
19 | AAGAGUACAGGAUAUAUGUGAAAAGAGUCGAAAGACUCAAAACAUGAGGAUCACCCAUGUAGAAGGGUACUCAA [Diamond 74] | 52.5 nM | 27.3 nM
